{
  "source": "patent US20050037339A1",
  "about": "(published 2005)",
  "binders": {"B1": {"name": "anti-BoNT-A scFv 2B6 (scFv)", "chain": "VKLVESGPGLVKPSQSLSLTCTVTGYSITSDYAWNWIRQFPGNKLEWMGYINYDGSNNYNPSLKNRISITRDTSKNQFFLKLNSVTSEDTATYYCARAGDGYYVDWYFDVWGTGTTVIVSSGGGGSGGGGSGGGGSYIELTQSPASLAVSLGQRATTSCRASESVDSYGNSFMHWYQQKPGQPPKLLIYLASNLESGVPARFSGSGSRTDFTLTIDPVEADDAATYYCQQNNEDPYTFGGGTKLEIKS"}},
  "key": {"[1]": {"target": "T1, BoNT-A C-fragment (UniProt P0DPI0 871-1296)", "T1 sequence (P0DPI0 871-1296)": "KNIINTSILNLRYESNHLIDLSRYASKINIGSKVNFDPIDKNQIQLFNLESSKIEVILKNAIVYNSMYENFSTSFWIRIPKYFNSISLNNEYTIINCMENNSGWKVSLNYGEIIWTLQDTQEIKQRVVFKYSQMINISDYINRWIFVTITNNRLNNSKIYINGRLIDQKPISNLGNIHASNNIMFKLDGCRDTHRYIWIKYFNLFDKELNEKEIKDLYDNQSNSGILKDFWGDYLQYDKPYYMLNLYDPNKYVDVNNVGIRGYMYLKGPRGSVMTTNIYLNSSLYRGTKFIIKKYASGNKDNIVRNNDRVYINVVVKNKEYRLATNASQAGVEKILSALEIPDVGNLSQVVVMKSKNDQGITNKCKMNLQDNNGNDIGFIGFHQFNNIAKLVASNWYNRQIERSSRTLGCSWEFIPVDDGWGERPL", "experiment": "SPR (BIAcore), purified scFv; Kd calculated as koff/kon"}, "[2]": {"target": "T1, BoNT-A C-fragment", "experiment": "SPR (BIAcore), purified scFv"}},
  "data": [
    {"binder": "B1", "values": [
      {"measurement": "Kd", "setting": "[1]", "value": 71.5, "unit": "nM"},
      {"measurement": "koff", "setting": "[2]", "value": 0.0078, "unit": "s⁻¹"},
      {"measurement": "kon", "setting": "[2]", "value": 110000, "unit": "M⁻¹ s⁻¹"}
    ]}
  ]
}
